# Results: PMC11505469
# Tests used:
# CD3εδ = test: SPR
# Human FcRn = test: SPR
substance,measurement,setting,value
ISB 2001 (from UniProt P01857),Kd,CD3εδ,41 nM
same,Kd,Human FcRn,240 nM
